Experimental data as given in the nanobody polyreactivity screen of Harvey et al. (2022).

Assay: yeast display, Sf9 membrane polyspecificity reagent, FACS + sequencing; frameworks hold sequencing errors
Outline: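 Genes from sorted yeast were amplified by colony PCR, read by MiSeq 2 × 250 sequencing and filtered on CDR length. These cells carried a synthetic nanobody library in Saccharomyces cerevisiae BJ5465 and were sorted by FACS into low and high (top ~1%) gates on anti-HA and streptavidin fluorescence. Polyreactivity is labelled according to the gate of origin.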

In the case of “QVQHVESGGGIVQAGGSLRLSCAASGSTFRWYAMGWYRQARGQERELVAAFTAGGRTYYADSVKGRFTISRDNAKNTVYLQMNSLKPEDTAVYYCNALGKVWRGGKFGYWGQGTQVTVSS”, the “polyreactivity (PSR sort gate)” value is reported as “high polyreactivity”.
In the case of “QVHLVESGGGLVQAGGSLRLSCSASGSTFNTYAMGWYRQAPGKERELVAAITRGGGGTYYADSVKGRFTISRDNAKNTVYLQMNSLKPEDTAVYYCADKFRYSKYGYWGQGTQVTVSS”, the “polyreactivity (PSR sort gate)” value is reported as “high polyreactivity”.
In the case of “QVQLVESGGGLVQAGGSLRLSCAASGSIFANNVMGWYRQAPGKEREFVAAISWSGGRTYYADSVTGRFTISRDNAKNTVYLQMNSLKPEDTAVYYCARRPRAWGQGTQVTVSS”, the “polyreactivity (PSR sort gate)” value is reported as “high polyreactivity”.
With “QVHLVESGGGLVQAGGSLRLSCASSGYIIKYNAMGWYRPAPGKERELVAAISSIGGRTYYADSVKGRFTISRDNAKNTVYLQMNRLKPEDTAVYYCNAVGGRYTGWRYDDWGQGTQVTVSS” the “polyreactivity (PSR sort gate)” value was “high polyreactivity”.
With “QVQLVESGGGLVQAGGSLRLSCAASGIFRYYAMGWYRQAPGKERELVASITGGGSTYYADSVKGRFTISRDNAKMTVYLQLNSLKPEDTAVYYCNTAGAYYRWTPYYYWGQGTQVTVSS” the “polyreactivity (PSR sort gate)” value was “high polyreactivity”.
For “QVQLVESGGGLVQAGGSLRLSCAASGFIFRYYAMGWYRQAPGKERELVARINRSGGSTYYADSVKGRFTISRDNAKNTVYLQMNSLKPEDTAVYYCAKDRTSYYSWYGYWGQGTQVTVSS”, the “polyreactivity (PSR sort gate)” value was “high polyreactivity”.
With “QVQLVESGGGLVQAGGSLRLSCAASGSIIGRNAMGWYRQAPGKERELVAAISTRGGRTYYADSVKGRFTISRDNAKNTVYLQMNSLKPEDTAVYYCAATYQYLKSGYYWGQGTQVTVSS” the “polyreactivity (PSR sort gate)” value was “high polyreactivity”.
For “QVQLVETGGGLVHAGGSLRLSCAASGFIFVVNAMGWYRQAPGKERELVAAITRNGGSTYYADSVKGRFSISRDNEKNTVYLQMNSLKPEDTAVYYCATYVRRAPSTFDVDYWGLGTQVTVSS”, the “polyreactivity (PSR sort gate)” value was “high polyreactivity”.
In the case of “QVQLVESGGGLVQAGGSLRLSCAASGFISYTYMGWYRQAPGKERELVAGITGSGGSTYYADSVKGRFTISRDNAKNTVYLQMNSLKPEDTAVYYCAAERPRRSPDGLNYWGQGTQVTVSS”, the “polyreactivity (PSR sort gate)” value is reported as “high polyreactivity”.
With “QVQLVESGGGLVQAGGSLRLSCAASGRTFSLNAMGWYRQAPGKERELVAAINRGGTTYYADSVKGRFTISRDNAKNTVYVQMNSLKPEDTAVYYCAARYISSYDWGQGTQVTVSS” the “polyreactivity (PSR sort gate)” value was “high polyreactivity”.
With “QVQLVESGGGLVQAGGSLRLSCAASGYIFGYNAMGWYRPAPGKERELVATITWRGGSTYYADSVKGRFTISRDNAKNTVYLQMNSLKPEDTAVYYCAAVRWVRYRTSAYEYWGQGTQVTVSS” the “polyreactivity (PSR sort gate)” value was “high polyreactivity”.
With “QVQLVESGGGLVQAGGSLRLSCAASGRIFSYNAMGWYRQAPGKERELVAAISSDGSTYYADSVKGRFTISRDNAKNTVYLQMNSLKPVDTAVYYCAARQVVWFDYTTAQVGSYKVNYWGQGTQVTVSS” the “polyreactivity (PSR sort gate)” value was “low polyreactivity”.
In the case of “QDQLVESGGGLVQAGGSLSLSCAASGSIFGKYTMGWYRQAPGKERELVAGITYRAGSTYYADSVKGRFTISRDNAKITVYLQMNSLKPEDTAVYYCAARFYFRWYYYGSYANYWGQGTQVTVSS”, the “polyreactivity (PSR sort gate)” value is reported as “high polyreactivity”.
In the case of “QVQLVESGGGLVQAGGSLRLSCAASGFNFYFYTMGWYRQAPGKERELVAGITWSGDSTYYADSVKGRFTISRDNAKNTVYLQMNSLKPEDTAVYYCAAGFDFGTRVSKGYDYWGQGTQVTVSS”, the “polyreactivity (PSR sort gate)” value is reported as “low polyreactivity”.
With “QVQLEESGGGLVQAGGSLRLSCAASGRTFNRYVMGWYRQAPGKERELVAAITWRGGSTYYADSVKGRFTISRDNAKTSVYLQMNSLKPEDTAVYYCAARYSGGYSVDAFDYWGQGTQVTVSS” the “polyreactivity (PSR sort gate)” value was “high polyreactivity”.
With “QVQLVESGGGLVQAGGSLRLSCAASGRTFNGYAMGWSRQAPGKERELVAALTGSVGSTYYADSVKGRFTISRDNAKNPGELQLNSLKPDDTAVYYCATRWKATRARYDYWGQGTQVTVTS” the “polyreactivity (PSR sort gate)” value was “high polyreactivity”.
For “QVQLVESLGGLVQAGASLRLSCAASARTFVIYSMGSYREAPGKERELVAAITWNGETTYYADSVKGRFTISRDNAKNTVYLQMNSLKPEDTAVYYCAAETRSEYHYWGQGTQVTVSS”, the “polyreactivity (PSR sort gate)” value was “high polyreactivity”.
For “QVQLVESGGCLVQAGGILRLSCAASGSTFWIYAMGWYRQAPGKERELVAAITLRSGSTYYADSVKGRYTISRDNAKNTVFLQMNSLKPEDTAVYYCATDSWGVDRPNYNYWGQGTQVTVSS”, the “polyreactivity (PSR sort gate)” value was “low polyreactivity”.
With “QVQLVESGGGLVQAGGSLRLSCAASGLTFVYYAMGWYRQAPGKERELVASIDYSGSSTYYADSVKGRFTISRDNSKNTVYLQMNSLKPEDTAVYYCAATDSGEYWGQGTQVTVSS” the “polyreactivity (PSR sort gate)” value was “low polyreactivity”.
In the case of “QVQLVESRGGLVQAGGSLRLSCAASGRTFGGYAMGWYRQAPGKERELVAAISTRGGTTYYADSVKGRFTISRDNAKNTVYLQMNSLKPEDTAVYYCAAVYLYYYNRYYYWGQGSQVTVSS”, the “polyreactivity (PSR sort gate)” value is reported as “high polyreactivity”.
In the case of “QVQLVESGGGLVQAGGSLRLSCAASGSTFAYNAMGWYIQAPGKERELVAAISWGDGITYYADSVKGRFSISRDYAKNTVYLQINILKPEDTAVITRDFGYWGQGTQVTVSS”, the “polyreactivity (PSR sort gate)” value is reported as “low polyreactivity”.
With “QVQLVESGGCLVQAGGSLRLSCAASGFTIWPNAMGWYRQAPGKERELVAAINWSGGATYYADSVKGRFTISRDNAKNSVYLHMNSLKPEDTAVYYCAAFSYDWYGGDEYWGKGTQVTVSS” the “polyreactivity (PSR sort gate)” value was “low polyreactivity”.
With “QVQLVESGVGLVQAGGSLRLSCAASGSIFGFYAMGWSRQAPGKERELVAAISDSGDSTYYADSVKGRFTISRDNAKNTVYLQMNSLKPEDTAVYNCATDGRSNYYWGDYWGQGTQVTVSS” the “polyreactivity (PSR sort gate)” value was “low polyreactivity”.
With “QVQLVESGGGLVQAGGSLRLSCAASGRTFTKNAMGWYRQAPGKERELVAAISISGGSTYYADSVKGRFTISRDNAKNTVYLQMYSLKPEDTAVYYCAADVVTYLSYTLDYWGQGTQVTVSS” the “polyreactivity (PSR sort gate)” value was “low polyreactivity”.
With “QVQLVESGGGLVQAGGSLRLSCAASGRICTRNAMGWYRQAPGKERELVAAISWRGGSTYYADSVKGRFTISRDNAKNTVYLQMNSLKPEDTAVYYCNAYFLSQYQSAYRDDYWGQGTQVTVSS” the “polyreactivity (PSR sort gate)” value was “high polyreactivity”.
For “QVQLVESGGGLVQAGGSLRLSCAASGSTFWYYALGWYRQAPGKERELVAAIRWSDGSTYYADSVKGRFTSSRDNAKNTVYLQMNSLKPEDTAVYYCEYYYWGQGTQVTVSS”, the “polyreactivity (PSR sort gate)” value was “low polyreactivity”.
In the case of “QVQLVESGGGLVQAGGSLRLSCAASGRIFNQYGMGWYRQAPGKERELVAAIRSGDSTNYADSVKGRFTISRDNAKNTVYLQRNSLKPEDTAVYYSARDRPGDYAGYDYWGQGTQVTVSS”, the “polyreactivity (PSR sort gate)” value is reported as “low polyreactivity”.
For “QVQLVESGGGLVQAGGSLRLSCAASGRIFGGYAMGWYRQAPGKERELVASITGGGTTDYADSVKGRFTISRDNAKNTVYLQMNSLKPEDTAVYYCAKRSHQFGVSRSYNTYYYWGQGTQVTVSS”, the “polyreactivity (PSR sort gate)” value was “low polyreactivity”.
In the case of “QVQLVESGGGIVQAGGSLRLSCAASGSTFGWYAMGWYRPAPGKERELVAAISTSGNTYYADSVKGRFTISRDNAKNTVYLQLNSLKPEDTAVYYCAKYVNPDHDYWGQGTQVTVSS”, the “polyreactivity (PSR sort gate)” value is reported as “low polyreactivity”.
For “QVQLVESGGGLVQAGGSLRLSCAASGRTFTRYTMGWYRQAPGKERELVAAISYSGGSTYYADSVKGRFTISRDNAKNTVYLQMNSLKPEDTAVYYCAAASVRWPGYDYWGQGTQVTVSS”, the “polyreactivity (PSR sort gate)” value was “high polyreactivity”.
For “QVQLVESGGGLVQAGGSLRLSCAASGFILFPYAMGWYRQAPGKERELVAAIRSDDTTYYADSVKGRFTISRDNAKNTVYLQMNSLKPEDTAVYYCNAARTRWATGYDYWGQGTQVTVSS”, the “polyreactivity (PSR sort gate)” value was “low polyreactivity”.
In the case of “QVQLVESGGGLVQAGGSLRLSCAASGKIFNNYVMGWYRQAPGKVRELVARIDSGGSTNYADSVKGRFTISRDNAKNTVYLQMNSLKPEDTAVYYCAARKLSSYAYDYWGQGTQVTVSS”, the “polyreactivity (PSR sort gate)” value is reported as “low polyreactivity”.
For “QGQLVESGGGLVQAGGSLRLSCAASGSISTYYAMGWYRQAPGKERELVAAISSSGVRTYYADSVKGRFTIARDNAKNTVYLQMNSLKREDTAVSYCAAEVYYLYFYIMDYWGQGTQVTVSS”, the “polyreactivity (PSR sort gate)” value was “high polyreactivity”.
In the case of “QVQLVESGGGLVQAGGSLRLSCAASGITFGRYAMGWYRQAPGKERELVAAITTRGGSTYYADSVKGRFTISRDNAKNTVYLQMNSLKPEDTAVYYCAADYRWAGRYYYWGQGTQVTVSS”, the “polyreactivity (PSR sort gate)” value is reported as “high polyreactivity”.
In the case of “QVQLVESGGGLVQAGGSLRLSCSASGFIFLDYAMGLYRQAPGKERELVAAISSRGARTYYADSVKGRFTISRDNAKNTVYLQMNSLKPEDTAVYYCAARGPHDRYGYWGQGNQVTVSS”, the “polyreactivity (PSR sort gate)” value is reported as “high polyreactivity”.
With “QVQLVESGGGLVQAGGSLRLSCAASGLIFGGNAMGWYRQAPGKERELVAAISRTGGRTYYADSVKGRFTISRDNAKNTVFLQMNSLKPEDTAVYYCAAAAQRPEGYYWGQGTQVTVSS” the “polyreactivity (PSR sort gate)” value was “high polyreactivity”.
For “QVQLVESGGGLVQAGGSLRLSCAASGIIFVSYAMGWYRQAPGKEWELVADISSGGRTYYADSVKGRFTISRDNAKNTVYLPMNSLKPEDTAVYYCAKVKRDLQYPGLPEVLNREYWGQGTQVTVSS”, the “polyreactivity (PSR sort gate)” value was “high polyreactivity”.
In the case of “QVQLVESGGGLVQAGGSLRLSCAASGSTFYIYAMGWYRQAPGKERELVADITWSGGSTYYADSVKGRFTISRDNAKNTVYLQMNSLKPEDTAVYYCATDSWFGLEYWGQCTQVTVSS”, the “polyreactivity (PSR sort gate)” value is reported as “high polyreactivity”.
For “QVQLVESGGGLVQAGGSLRLSCAASGRAFKRYAMGWYRQAPGKERELVAAITRSGGSTYYADSVTGRFTISRDKAKNTVYLQMNSLKPEDTAVYYCATRSYNNELEYWGQGTQVTVSS”, the “polyreactivity (PSR sort gate)” value was “high polyreactivity”.
With “QVQLVESGGGLVQAGGSLRLSCAASGRTFLTNAMGWYRQAPGKERELVAAITSSGGNTYYADSVKGRFTISRDNAKNTVYLQMNSLKPEDTAVYYCAAPGYVWYGGRWVYRYYYWGQGTQVTVSS” the “polyreactivity (PSR sort gate)” value was “high polyreactivity”.
In the case of “QVQLVESGGGLVQAGGRLRLSCAAYGRIFDYYAMGWYRPAPGKEREFVAGITSTGGSTYYADSVKGRFTISRDNAMNTVYFQMNSLKPEDTPVYYCNVVKRLRHGYDYWGQGNQVTVSS”, the “polyreactivity (PSR sort gate)” value is reported as “high polyreactivity”.
With “QVQLVESGGGLVPAGGSLRLSCAASGSIFVGYAMGWYRQAPGKERELVADITVGGGSTFYADSVKGRFTISRDNAKNTVYLQMTSLKPEDTAVYYCAKYAGVYEYDYWGQGTQVTVSS” the “polyreactivity (PSR sort gate)” value was “low polyreactivity”.
With “QVQLVETGRGLVQEGGSLRLICAASGRTFYIYAMGWYRQAPGKERDLVAAISWGSGSPYYADSVKGRFTISRDNAKNTVYLQINSLKPEDTAVYYFAAEYAFPSEWTYDYWGQVTQVTVSS” the “polyreactivity (PSR sort gate)” value was “low polyreactivity”.
